In the supplement of paper PMC10567573:

B1: C20orf112 (parent)
chain: YANGGLNYSYRGYGALSSNLQPPA

Variants of: B1
Test: protein stability index of a GFP-peptide fusion (GPS, HEK-293T) (PSI 1-6); higher = more stable
Conditions: c terminus: a fixed tail appended
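Also: lentivirally expressed fusions sorted by FACS into six bins by GFP to DsRed ratio, PSI derived from sequencing read proportions per bin multiplied by bin number.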

With YANGGLNYSYRGYAALSSNLQPPA [G14A] as the variant, how does the protein stability index read?
Its protein stability index is 1.76.

With YANGGLNYSYRGYQALSSNLQPPA [G14Q] as the variant, how does the protein stability index read?
Its protein stability index is 1.76.

Which protein stability index does the source give for YANGGLNYSYRGYVALSSNLQPPA [G14V] here?
Its protein stability index is 2.4.

For YANGGLNYSYRGYIALSSNLQPPA [G14I], which protein stability index is on record?
The protein stability index was 3.6.

With YANGGLNYSYRGYTALSSNLQPPA [G14T] as the variant, how does the protein stability index read?
Its protein stability index is 2.8.

Which protein stability index does the source give for YANGGLNYSYRGYSALSSNLQPPA [G14S] here?
The protein stability index was 2.32.

Which protein stability index does the source give for YANGGLNYSYRGYCALSSNLQPPA [G14C] here?
The protein stability index was 3.39.

For YANGGLNYSYRGYKALSSNLQPPA [G14K], which protein stability index is on record?
The protein stability index was 2.21.

Which protein stability index does the source give for YANGGLNYSYRGYDALSSNLQPPA [G14D] here?
Its protein stability index is 1.54.

For YANGGLNYSYRGYPALSSNLQPPA [G14P], which protein stability index is on record?
Its protein stability index is 2.54.

For YANGGLNYSYRGYGALSSNLQTPA [P22T], which protein stability index is on record?
Its protein stability index is 1.71.

Which protein stability index does the source give for YANGGLNYSYRGYGALSSNLQLPA [P22L] here?
Its protein stability index is 2.27.

With YANGGLNYSYRGYGALSSNLQWPA [P22W] as the variant, how does the protein stability index read?
The protein stability index was 1.97.

With YANGGLNYSYRGYGALSSNLQMPA [P22M] as the variant, how does the protein stability index read?
The protein stability index was 1.63.

Which protein stability index does the source give for YANGGLNYSYRGYGALSSNLQNPA [P22N] here?
The protein stability index was 2.33.

Which protein stability index does the source give for YANGGLNYSYRGYGALSSNLQVPA [P22V] here?
Its protein stability index is 1.83.

Which protein stability index does the source give for YANGGLNYSYRGYGALSSNLQCPA [P22C] here?
The protein stability index was 2.97.

For YANGGLNYSYRGYGALSSNLQHPA [P22H], which protein stability index is on record?
The protein stability index was 1.94.

Which protein stability index does the source give for YANGGLNYSYRGYGALSSNLQDPA [P22D] here?
The protein stability index was 1.6.

With YANGGLNYSYRGYGRLSSNLQPPA [A15R] as the variant, how does the protein stability index read?
The protein stability index was 2.8.

With YANGGLNYSYRGYGKLSSNLQPPA [A15K] as the variant, how does the protein stability index read?
The protein stability index was 2.24.

Which protein stability index does the source give for YANGGLNYSYRGYGCLSSNLQPPA [A15C] here?
Its protein stability index is 2.32.

With YANGGLNYSYRGYGFLSSNLQPPA [A15F] as the variant, how does the protein stability index read?
Its protein stability index is 2.68.

For YANGGLNYSYRGYGLLSSNLQPPA [A15L], which protein stability index is on record?
The protein stability index was 2.6.

For QANGGLNYSYRGYGALSSNLQPPA [Y1Q], which protein stability index is on record?
The protein stability index was 3.32.

With LANGGLNYSYRGYGALSSNLQPPA [Y1L] as the variant, how does the protein stability index read?
Its protein stability index is 2.67.

For RANGGLNYSYRGYGALSSNLQPPA [Y1R], which protein stability index is on record?
Its protein stability index is 2.97.

Which protein stability index does the source give for PANGGLNYSYRGYGALSSNLQPPA [Y1P] here?
The protein stability index was 2.43.

With SANGGLNYSYRGYGALSSNLQPPA [Y1S] as the variant, how does the protein stability index read?
The protein stability index was 3.12.

For WANGGLNYSYRGYGALSSNLQPPA [Y1W], which protein stability index is on record?
Its protein stability index is 1.85.

For FANGGLNYSYRGYGALSSNLQPPA [Y1F], which protein stability index is on record?
Its protein stability index is 1.86.

For YANGGVNYSYRGYGALSSNLQPPA [L6V], which protein stability index is on record?
Its protein stability index is 1.85.

Which protein stability index does the source give for YANGGCNYSYRGYGALSSNLQPPA [L6C] here?
Its protein stability index is 2.24.

For YANGGDNYSYRGYGALSSNLQPPA [L6D], which protein stability index is on record?
Its protein stability index is 1.9.

With YANGGKNYSYRGYGALSSNLQPPA [L6K] as the variant, how does the protein stability index read?
Its protein stability index is 1.57.

With YANGGTNYSYRGYGALSSNLQPPA [L6T] as the variant, how does the protein stability index read?
The protein stability index was 1.96.

Which protein stability index does the source give for YANGGYNYSYRGYGALSSNLQPPA [L6Y] here?
Its protein stability index is 2.47.

With YANGGFNYSYRGYGALSSNLQPPA [L6F] as the variant, how does the protein stability index read?
The protein stability index was 2.08.

For YANGGMNYSYRGYGALSSNLQPPA [L6M], which protein stability index is on record?
The protein stability index was 2.3.

With YANGGENYSYRGYGALSSNLQPPA [L6E] as the variant, how does the protein stability index read?
Its protein stability index is 1.97.

For YANGGPNYSYRGYGALSSNLQPPA [L6P], which protein stability index is on record?
Its protein stability index is 2.5.

Which protein stability index does the source give for YANSGLNYSYRGYGALSSNLQPPA [G4S] here?
The protein stability index was 1.66.

Which protein stability index does the source give for YANWGLNYSYRGYGALSSNLQPPA [G4W] here?
The protein stability index was 1.99.

For YANTGLNYSYRGYGALSSNLQPPA [G4T], which protein stability index is on record?
Its protein stability index is 1.98.

Which protein stability index does the source give for YANMGLNYSYRGYGALSSNLQPPA [G4M] here?
Its protein stability index is 1.48.

Which protein stability index does the source give for YANAGLNYSYRGYGALSSNLQPPA [G4A] here?
The protein stability index was 2.81.

With YANFGLNYSYRGYGALSSNLQPPA [G4F] as the variant, how does the protein stability index read?
The protein stability index was 1.42.

For YANGGLNYSYHGYGALSSNLQPPA [R11H], which protein stability index is on record?
The protein stability index was 1.69.

Which protein stability index does the source give for YANGGLNYSYTGYGALSSNLQPPA [R11T] here?
The protein stability index was 1.53.

Which protein stability index does the source give for YANGGLNYSYIGYGALSSNLQPPA [R11I] here?
The protein stability index was 1.98.

Which protein stability index does the source give for YANGGLNYSYYGYGALSSNLQPPA [R11Y] here?
The protein stability index was 2.21.

For YANGGLNYSYVGYGALSSNLQPPA [R11V], which protein stability index is on record?
The protein stability index was 2.09.

With YANGGLNYSYEGYGALSSNLQPPA [R11E] as the variant, how does the protein stability index read?
Its protein stability index is 1.94.

Which protein stability index does the source give for YANGGLNYSYGGYGALSSNLQPPA [R11G] here?
The protein stability index was 2.24.

With YANGGLNYSYMGYGALSSNLQPPA [R11M] as the variant, how does the protein stability index read?
Its protein stability index is 2.48.

Which protein stability index does the source give for YANGGLNYSYDGYGALSSNLQPPA [R11D] here?
The protein stability index was 1.82.

For YANGGLNYSYKGYGALSSNLQPPA [R11K], which protein stability index is on record?
The protein stability index was 2.09.

With YANGGLNYSYCGYGALSSNLQPPA [R11C] as the variant, how does the protein stability index read?
Its protein stability index is 3.49.

For YANGGLNYSYRGDGALSSNLQPPA [Y13D], which protein stability index is on record?
The protein stability index was 1.82.

For YANGGLNYSYRGIGALSSNLQPPA [Y13I], which protein stability index is on record?
The protein stability index was 2.29.

For YANGGLNYSYRGVGALSSNLQPPA [Y13V], which protein stability index is on record?
The protein stability index was 1.73.

Which protein stability index does the source give for YANGGLNYSYRGMGALSSNLQPPA [Y13M] here?
Its protein stability index is 2.56.

For YANGGLNYSYRGAGALSSNLQPPA [Y13A], which protein stability index is on record?
The protein stability index was 1.93.

With YANGGLNYSYRGFGALSSNLQPPA [Y13F] as the variant, how does the protein stability index read?
Its protein stability index is 2.5.

With YANGGLNYSYRGYGALSSNLQPPK [A24K] as the variant, how does the protein stability index read?
Its protein stability index is 2.

Which protein stability index does the source give for YANGGLNYSYRGYGALSSNLQPPV [A24V] here?
Its protein stability index is 2.23.

Which protein stability index does the source give for YANGGLNYSYRGYGALSSNLQPPY [A24Y] here?
The protein stability index was 1.75.

With YANGGLNYSYRGYGALSSNLQPPI [A24I] as the variant, how does the protein stability index read?
The protein stability index was 2.43.

Which protein stability index does the source give for YANGGLNYSYRGYGALSSNLQPPW [A24W] here?
Its protein stability index is 1.86.

With YANGGLNYSYRGYGALSSNLQPPH [A24H] as the variant, how does the protein stability index read?
Its protein stability index is 2.19.

With YANGGLNYSYRGYGALSSNLQPPE [A24E] as the variant, how does the protein stability index read?
Its protein stability index is 1.95.

For YENGGLNYSYRGYGALSSNLQPPA [A2E], which protein stability index is on record?
The protein stability index was 2.63.

For YCNGGLNYSYRGYGALSSNLQPPA [A2C], which protein stability index is on record?
The protein stability index was 1.87.

With YKNGGLNYSYRGYGALSSNLQPPA [A2K] as the variant, how does the protein stability index read?
The protein stability index was 2.19.

With YVNGGLNYSYRGYGALSSNLQPPA [A2V] as the variant, how does the protein stability index read?
The protein stability index was 2.49.

For YGNGGLNYSYRGYGALSSNLQPPA [A2G], which protein stability index is on record?
Its protein stability index is 1.95.

For YWNGGLNYSYRGYGALSSNLQPPA [A2W], which protein stability index is on record?
Its protein stability index is 2.22.

Which protein stability index does the source give for YLNGGLNYSYRGYGALSSNLQPPA [A2L] here?
The protein stability index was 1.93.

For YQNGGLNYSYRGYGALSSNLQPPA [A2Q], which protein stability index is on record?
Its protein stability index is 1.4.

Which protein stability index does the source give for YHNGGLNYSYRGYGALSSNLQPPA [A2H] here?
Its protein stability index is 1.62.

With YINGGLNYSYRGYGALSSNLQPPA [A2I] as the variant, how does the protein stability index read?
The protein stability index was 2.1.

With YANGGLNYSYRGYGALSSTLQPPA [N19T] as the variant, how does the protein stability index read?
The protein stability index was 1.91.

Which protein stability index does the source give for YANGGLNYSYRGYGALSSQLQPPA [N19Q] here?
Its protein stability index is 2.14.

Which protein stability index does the source give for YANGGLNYSYRGYGALSSPLQPPA [N19P] here?
Its protein stability index is 2.18.

With YANGGLNYSYRGYGALSSVLQPPA [N19V] as the variant, how does the protein stability index read?
The protein stability index was 1.99.

With YANGGLNYSYRGYGALSSILQPPA [N19I] as the variant, how does the protein stability index read?
Its protein stability index is 1.71.

Which protein stability index does the source give for YANGGLNYSYRGYGALSSDLQPPA [N19D] here?
The protein stability index was 2.15.

Which protein stability index does the source give for YANGGLNYSYRGYGALSSNLWPPA [Q21W] here?
The protein stability index was 1.75.

Which protein stability index does the source give for YANGGLNYSYRGYGALSSNLTPPA [Q21T] here?
Its protein stability index is 2.61.

For YANGGLNYSYRGYGALSSNLIPPA [Q21I], which protein stability index is on record?
The protein stability index was 2.76.

With YANGGLNYSYRGYGALSSNLLPPA [Q21L] as the variant, how does the protein stability index read?
The protein stability index was 1.99.

With YANGGLNYSYRGYGALSSNLVPPA [Q21V] as the variant, how does the protein stability index read?
The protein stability index was 1.59.

For YANGGLNYSYRGYGALSSNLFPPA [Q21F], which protein stability index is on record?
The protein stability index was 2.26.

For YANGGLNYSYRGYGALSSNLRPPA [Q21R], which protein stability index is on record?
The protein stability index was 1.75.
